Assay results from patent US20090170766A1, “Chimeric Kunitz Domains and their Use” (BAYER HEALTHCARE AG, priority 2006, published 2009).
Positions of bridges follow the written chain, without caps; N, C: chain ends. No end group written: not given here.

What was measured:
[1] = biological target: T1, human plasmin (Homo sapiens, UniProt P00747); assay: Inhibition of plasmin, fluorogenic substrate assay; type: biochemical
T1 construct: enzymatic activities of trypsin, plasmin and plasma kallikrein; purchased Enzyme Research Hplas
Experimental: (§1) The inhibitory potency of TFPI mut3 on the enzymatic activities of trypsin, plasmin and plasma kallikrein were determined with the aid of fluorogenic substrates in biochemical assays in white 384-well microtitre plates. The assay buffer was composed of 50 mM Tris/Cl, pH 7.4, 100 mM NaCl, 5 mM CaCl2, 0.08% (w/v) BSA. The assay conditions were specifically as follows:
(§2) 10 μl of a serial dilution of TFPI mut3EA were introduced into each well and preincubated with 20 μl of enzyme at RT for 5 min. The reaction was then started by adding 20 μl of substrate to each. The measurement took place after 60-90 min in a Tecan reader with an excitation wavelength of 360 nm and an emission wavelength of 465 nm. Dose-activity plots and half-maximum inhibitory constants (IC50 values) were determined using GraphPad Prism software (version 4.02).

[2] = biological target: T2, human plasma kallikrein (Homo sapiens, UniProt P03952); assay: Inhibition of plasma kallikrein, fluorogenic substrate assay; type: biochemical
T2 construct: purchased Calbiochem 420307
Experimental: as §1, §2

[3] = biological target: human plasma kallikrein (human, UniProt P03952)
[4] = biological target: human trypsin (human, UniProt P07477)
[5] = biological target: human plasmin (human, UniProt P00747)
Sequence of human plasmin (human, UniProt P00747) (P00747 97-810 limits assumed): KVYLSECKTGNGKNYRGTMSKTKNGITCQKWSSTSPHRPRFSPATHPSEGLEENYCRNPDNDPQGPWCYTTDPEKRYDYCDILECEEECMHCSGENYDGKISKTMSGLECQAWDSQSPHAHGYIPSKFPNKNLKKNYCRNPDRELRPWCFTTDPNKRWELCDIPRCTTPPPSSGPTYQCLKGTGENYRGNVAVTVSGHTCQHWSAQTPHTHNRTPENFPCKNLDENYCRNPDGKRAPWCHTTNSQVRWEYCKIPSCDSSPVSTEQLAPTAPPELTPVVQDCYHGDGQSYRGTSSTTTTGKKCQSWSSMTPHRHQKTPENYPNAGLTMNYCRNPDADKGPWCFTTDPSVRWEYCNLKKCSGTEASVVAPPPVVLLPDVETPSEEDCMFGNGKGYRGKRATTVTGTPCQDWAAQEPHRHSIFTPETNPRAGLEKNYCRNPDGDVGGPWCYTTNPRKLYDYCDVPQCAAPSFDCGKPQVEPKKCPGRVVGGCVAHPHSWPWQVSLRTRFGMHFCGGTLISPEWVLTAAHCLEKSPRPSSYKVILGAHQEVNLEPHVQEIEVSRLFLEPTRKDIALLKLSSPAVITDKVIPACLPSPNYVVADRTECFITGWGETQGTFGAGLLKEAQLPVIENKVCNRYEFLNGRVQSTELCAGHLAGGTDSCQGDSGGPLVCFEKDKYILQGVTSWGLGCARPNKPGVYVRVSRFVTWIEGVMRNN

T1 sequence (P00747 581-810 limits assumed): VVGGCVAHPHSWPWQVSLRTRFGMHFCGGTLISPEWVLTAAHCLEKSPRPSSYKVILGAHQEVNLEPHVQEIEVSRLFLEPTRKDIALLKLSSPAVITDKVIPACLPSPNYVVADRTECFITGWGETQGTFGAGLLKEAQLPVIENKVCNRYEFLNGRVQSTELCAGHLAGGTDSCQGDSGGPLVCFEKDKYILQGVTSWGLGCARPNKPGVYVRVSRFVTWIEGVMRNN
T1 sequence (P00747 97-580 partner limits assumed): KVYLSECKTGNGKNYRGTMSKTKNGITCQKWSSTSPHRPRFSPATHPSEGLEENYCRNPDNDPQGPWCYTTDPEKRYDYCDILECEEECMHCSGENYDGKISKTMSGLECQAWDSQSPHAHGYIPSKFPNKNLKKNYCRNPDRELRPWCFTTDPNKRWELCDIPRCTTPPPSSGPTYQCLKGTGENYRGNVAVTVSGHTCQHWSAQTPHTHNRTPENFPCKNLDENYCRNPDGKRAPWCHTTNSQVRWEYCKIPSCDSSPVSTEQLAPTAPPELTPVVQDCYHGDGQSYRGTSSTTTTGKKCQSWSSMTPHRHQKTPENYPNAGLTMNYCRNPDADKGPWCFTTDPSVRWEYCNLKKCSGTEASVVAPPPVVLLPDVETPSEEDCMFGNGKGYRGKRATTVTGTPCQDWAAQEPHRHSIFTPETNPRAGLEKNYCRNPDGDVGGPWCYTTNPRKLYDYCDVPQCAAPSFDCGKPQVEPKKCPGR
T2 sequence (P03952 391-638 limits assumed): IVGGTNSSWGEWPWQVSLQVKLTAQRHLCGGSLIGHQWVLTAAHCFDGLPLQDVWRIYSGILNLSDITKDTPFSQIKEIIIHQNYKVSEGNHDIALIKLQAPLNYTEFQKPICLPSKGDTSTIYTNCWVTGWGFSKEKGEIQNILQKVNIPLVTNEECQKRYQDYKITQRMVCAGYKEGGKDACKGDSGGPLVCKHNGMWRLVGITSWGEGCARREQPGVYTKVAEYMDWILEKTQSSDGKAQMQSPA
T2 sequence (P03952 20-390 partner limits assumed): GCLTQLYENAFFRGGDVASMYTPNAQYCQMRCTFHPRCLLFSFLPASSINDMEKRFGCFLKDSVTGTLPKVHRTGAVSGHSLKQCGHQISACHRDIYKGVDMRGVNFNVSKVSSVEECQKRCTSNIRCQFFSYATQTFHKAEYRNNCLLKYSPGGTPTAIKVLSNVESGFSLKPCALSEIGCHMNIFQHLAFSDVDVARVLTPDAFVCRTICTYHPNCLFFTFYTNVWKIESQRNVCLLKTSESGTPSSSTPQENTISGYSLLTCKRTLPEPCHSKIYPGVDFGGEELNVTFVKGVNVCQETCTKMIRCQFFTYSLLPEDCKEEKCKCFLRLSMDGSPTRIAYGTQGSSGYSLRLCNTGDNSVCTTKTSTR

Row | Molecule | IC50 [1] [nM] | IC50 [2] [nM] | Plasma kallikrein IC50 [nM], inhibition of enzymatic activity, fluorogenic substrate [3] [nM] | Trypsin IC50 [nM], inhibition of enzymatic activity, fluorogenic substrate [4] [nM] | Plasmin IC50 [nM], inhibition of enzymatic activity, fluorogenic substrate [5] [nM]
1 | EAMHSFCAFKAVTGPCRASFPRWFFNIFTRQCEEFIYGGCEGNQNRFESLEECKKMCTRD (disulfide 7-57, 16-40, 32-53) [SEQ ID NO: 29] | 19 | 16 |  |  | 
2 | EAMHSFCAFKAETGPCRAAHPRWFFNIFTRQCEEFIYGGCEGNQNRFESLEECKKMCTRD (disulfide 7-57, 16-40, 32-53) [SEQ ID NO: 19] | 30 | 3 |  |  | 
3 | MHSFCAFKAETGPCRAAHPRWFFNIFTRQCEEFIYGGCEGNQNRFESLEECKKMCTRD (disulfide 5-55, 14-38, 30-51) [SEQ ID NO: 4] | 32 | 3 |  |  | 
4 | EAMHSFCAFKASTGPCKARIIRFFFNIFTRQCEEFIYGGCEGNQNRFESLEECKKMCTRD (disulfide 7-57, 16-40, 32-53) [SEQ ID NO: 30] | 56 | 2.34 |  |  | 
5 | EAMHSFCAFKAVTGPCKARIIRFFFNIFTRQCEEFIYGGCEGNQNRFESLEECKKMCTRD (disulfide 7-57, 16-40, 32-53) [SEQ ID NO: 18] | 47 | 1.48 |  |  | 
6 | EAMHSFCAFKAYTGPCRAAIIRFFFNIFTRQCEEFIYGGCEGNQNRFESLEECKKMCTRD (disulfide 7-57, 16-40, 32-53) [SEQ ID NO: 28] | 77 | 8 |  |  | 
7 | MHSFCAFKAETGPCRAAMKRFFFNIFTRQCEEFIYGGCEGNQNRFESLEECKKMCTRD (disulfide 5-55, 14-38, 30-51) [SEQ ID NO: 10] | 27 | 48 |  |  | 
8 | MHSFCAFKADDGPCKAIMKRFFFNIFTRQCEEFIYGGCEGNQNRFESLEECKKMCTRD (disulfide 5-55, 14-38, 30-51) [hTFPI D1, reference compound] |  | > 10 |  |  | 
9 | MHSFCAFKADDGPCKAIMKRFWFNIFTRQCEEFIYGGCEGNQNRFESLEECKKMCTRD (disulfide 5-55, 14-38, 30-51) [SEQ ID NO: 9] | 497 | > 10 |  |  | 
10 | MHSFCAFKADDGPCRAAMKRFFFNIFTRQCEEFIYGGCEGNQNRFESLEECKKMCTRD (disulfide 5-55, 14-38, 30-51) [SEQ ID NO: 7] | 195 | 11 |  |  | 
11 | EAMHSFCAFKAVTGPCRAAMKRFWFNIFTRQCEEFIYGGCEGNQNRFESLEECKKMCTRD (disulfide 7-57, 16-40, 32-53) [SEQ ID NO: 31] | 48 | 75 |  |  | 
12 | MHSFCAFKADDGPCRAAHPRWWFNIFTRQCEEFIYGGCEGNQNRFESLEECKKMCTRD (disulfide 5-55, 14-38, 30-51) [SEQ ID NO: 8] | 267 | 1 |  |  | 
13 | EAMHSFCAFKAYTGPCKARIIRFFFNIFTRQCEEFIYGGCEGNQNRFESLEECKKMCTRD (disulfide 7-57, 16-40, 32-53) [SEQ ID NO: 25] | 52 | 1.19 |  |  | 
14 | EAMHSFCAFKAYTGPCKAAIIRFFFNIFTRQCEEFIYGGCEGNQNRFESLEECKKMCTRD (disulfide 7-57, 16-40, 32-53) [SEQ ID NO: 26] | 83 | 194 |  |  | 
15 | EAMHSFCAFKAETGPCRAAHPRWWFNIFTRQCEEFIYGGCEGNQNRFESLEECKKMCTRD (disulfide 7-57, 16-40, 32-53) [SEQ ID NO: 20] | 24 | 2 |  |  | 
16 | TFPI mut13EA (SEQ ID NO: 18) (designed binder) EAMHSFCAFKAVTGPCKARIIRFFFNIFTRQCEEFIYGGCEGNQNRFESLEECKKMCTRD |  |  | 1480 | 20 | 47
17 | TFPI mut7EA (SEQ ID NO: 25) (designed binder) EAMHSFCAFKAYTGPCKARIIRFFFNIFTRQCEEFIYGGCEGNQNRFESLEECKKMCTRD |  |  | 1190 | 38 | 52
18 | TFPI mut15EA (SEQ ID NO: 31) (designed binder) EAMHSFCAFKAVTGPCRAAMKRFWFNIFTRQCEEFIYGGCEGNQNRFESLEECKKMCTRD |  |  | 75 | 1 | 48
19 | TFPI mut4EA (SEQ ID NO: 20) (designed binder) EAMHSFCAFKAETGPCRAAHPRWWFNIFTRQCEEFIYGGCEGNQNRFESLEECKKMCTRD |  |  | 2 | 7 | 24
20 | TFPI mut11EA (SEQ ID NO: 29) (designed binder) EAMHSFCAFKAVTGPCRASFPRWFFNIFTRQCEEFIYGGCEGNQNRFESLEECKKMCTRD |  |  | 16 | 4 | 19
21 | TFPI mut8EA (SEQ ID NO: 26) (designed binder) EAMHSFCAFKAYTGPCKAAIIRFFFNIFTRQCEEFIYGGCEGNQNRFESLEECKKMCTRD |  |  | 194 | 64 | 83
22 | TFPI mut3EA (SEQ ID NO: 19) (designed binder, ends and bridges not checked; cysteine pairing not given here) EAMHSFCAFKAETGPCRAAHPRWFFNIFTRQCEEFIYGGCEGNQNRFESLEECKKMCTRD |  |  | 3 | 5 | 30
23 | TFPI mut10EA (SEQ ID NO: 28) (designed binder) EAMHSFCAFKAYTGPCRAAIIRFFFNIFTRQCEEFIYGGCEGNQNRFESLEECKKMCTRD |  |  | 8 | 17 | 77
24 | TFPI mut12EA (SEQ ID NO: 30) (designed binder) EAMHSFCAFKASTGPCKARIIRFFFNIFTRQCEEFIYGGCEGNQNRFESLEECKKMCTRD |  |  | 2340 | 21 | 56
25 | TFPI mut4 (SEQ ID NO: 5) (designed binder) MHSFCAFKAETGPCRAAHPRWWFNIFTRQCEEFIYGGCEGNQNRFESLEECKKMCTRD |  |  | 3 | 8 | 24
26 | TFPI mut3 (SEQ ID NO: 4) (designed binder) MHSFCAFKAETGPCRAAHPRWFFNIFTRQCEEFIYGGCEGNQNRFESLEECKKMCTRD |  |  | 3 | 5 | 32
27 | TFPI mut2 (SEQ ID NO: 7) (designed binder) MHSFCAFKADDGPCRAAMKRFFFNIFTRQCEEFIYGGCEGNQNRFESLEECKKMCTRD |  |  | 11 | 19 | 195
28 | TFPI mut5 (SEQ ID NO: 8) (designed binder) MHSFCAFKADDGPCRAAHPRWWFNIFTRQCEEFIYGGCEGNQNRFESLEECKKMCTRD |  |  | 1 | 266 | 267
29 | TFPI random (SEQ ID NO: 10) (designed binder) MHSFCAFKAETGPCRAAMKRFFFNIFTRQCEEFIYGGCEGNQNRFESLEECKKMCTRD |  |  | 48 | 6 | 27
30 | TFPI mut6 (SEQ ID NO: 9) (designed binder) MHSFCAFKADDGPCKAIMKRFWFNIFTRQCEEFIYGGCEGNQNRFESLEECKKMCTRD |  |  | > 10000 | 36 | 497
